Measurements from patent US20070207967A1, “Peptide Inhibitors of Matrix Metalloproteinase Activity” (CTT CANCER TARGETING TECHNOLOGIES OY, priority 2004, published 2007).

How the values were obtained:
[1] = test system: β5 integrin-transfected CS-1 melanoma cells; experiment: 125I-C domain binding to cells; format: cell-based, hamster; conditions: for Competition of 125I-labelled MMP-9 C domain binding to β5 integrin-transfected CS-1 cells: unlabelled proteins 50 μg/ml, peptides 50 μM
Procedure: ^125I-C domain binding to cells. The MMP-9 C domain was labelled with ^125I to a specific activity 0.06 μCi/pmol. The labelled domain retained 40% of the CRV peptide-binding activity as shown by the phage-binding assay. […] After a preincubation of 1.5×10^6 cells in a 200 μl volume on ice for 30 min with the competitors, ^125I-labelled C domain (1×10^6 cpm) was added and incubated for three hours on ice. The cells were transferred to tubes containing 200 μl of dibutyl phthalate/cyclohexane mixture (23:2 vol/vol), centrifuged 7500×g for 10 minutes and snap-frozen (24). The bottom of the tube containing the cells were cut and analyzed with a gamma-counter.

[2] = test system: HT1080 fibrosarcoma; experiment: HT1080 invasion through matrigel; format: cell-based, human; conditions: 50 μg/ml
Procedure: Cell migration and invasion. The cell migration assay was conducted using transwell migration chambers (8 μm pore size, Costar) in 10% serum-containing medium (2,14). Briefly, the membranes were coated on both sides with 40 μg/ml GST or with the β2 integrin ligand peptide […]-GST fusion (GST-LLG-C4) and blocked with complete medium. THP-1 cells (50 000/100 μl) were preincubated with the peptides for 1 h in serum-containing medium. The cells were allowed to migrate for 16 h and were then stained with crystal violet and counted (14). The HT1080 (20 000 cells/I100 μl) invasion assay was performed as the THP-1 migration, except that matrigel coated transwells (BD Biosciences) were used.

[3] = test system: THP-1 cells; experiment: THP-1 cell binding to immobilized KIM127 antibody; format: cell-based, human
Procedure: (§1) Cell adhesion. HT1080 cells were allowed to adhere on vitronectin or fibronectin (2 μg/ml) in the presence or absence of peptides (200 μM), proteins (40 μg/ml) or a monoclonal anti-αvβ5 integrin antibody P1F6 (Chemicon) or a control antibody (25 μg/ml). The adhesion was quantified as described (14). Adhesion of THP-1 cells to immobilized KIM127 or control monoclonal antibodies (2 μg/ml) was done in the presence or absence of soluble proteins (50 μg/ml) or antibodies (25 μg/ml).

[4] = test system: THP-1 cells; experiment: THP-1 cell binding to antibody R3F9C; format: cell-based, human; conditions: not shown
Procedure: as §1

[5] = test system: HT1080 cells; experiment: HT1080 cell adhesion to vitronectin or fibronectin; format: cell-based, human; conditions: proteins 40 μg/ml, CRV peptide 200 μM
Procedure: as §1

[6] = target: T1, MMP-9 C domain (Homo sapiens, UniProt P14780); experiment: β5 I-EGF2+3 binding assay, MMP-9 C domain
T1 construct: MMP-9 (Asp^494-Asp^688) were expressed as described (16); made in house; host or cells: E. coli (β5 fragment)
T1 sequence (P14780 513-707 limits assumed): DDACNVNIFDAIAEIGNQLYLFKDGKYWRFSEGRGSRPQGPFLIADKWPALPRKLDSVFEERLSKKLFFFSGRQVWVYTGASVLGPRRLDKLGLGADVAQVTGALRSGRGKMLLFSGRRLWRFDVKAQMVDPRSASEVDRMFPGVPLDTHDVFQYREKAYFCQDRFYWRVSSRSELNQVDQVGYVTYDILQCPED
Procedure: (§2) B5 I-EGF2+3 binding assay. MMP-9 C domain, MMP-2 C domain, CBD, β5 I-EGF2+3 or vitronectin (2 μg/ml) were immobilized in microtiter wells. Biotinylated β5 I-EGF2+3 fragment (2.5 μg/ml) was added to the wells which were preincubated with the competitors for 30 min in 1% BSA-PBST and then incubated further for one hour. Bound biotinylated protein was detected with streptavidin-peroxidase.

[7] = test system: MMP-9 CBD, vitronectin, β5 I-EGF2+3, C domain of MMP-2; experiment: β5 I-EGF2+3 binding assay, other immobilized proteins
Procedure: as §2

B1: MMP-9 C domain: recombinant C-terminal hemopexin-like domain of MMP-9 (Asp494-Asp688) (protein)
chain: DDACNVNIFDAIAEIGNQLYLFKDGKYWRFSEGRGSRPQGPFLIADKWPALPRKLDSVFEERLSKKLFFFSGRQVWVYTGASVLGPRRLDKLGLGADVAQVTGALRSGRGKMLLFSGRRLWRFDVKAQMVDPRSASEVDRMFPGVPLDTHDVFQYREKAYFCQDRFYWRVSSRSELNQVDQVGYVTYDILQCPED
Binding of 125Iodine-labelled MMP-9 C domain to β5 integrin-transfected CS-1 cells ([1]; not to the untransfected cells): specific binding
Competition of 125I-labelled MMP-9 C domain binding to β5 integrin-transfected CS-1 cells [1]: competed
Inhibition of HT1080 invasion through matrigel by integrin and MMP domains [2]: inhibited HT1080 invasion with a similar potency
Inhibition of THP-1 cell binding to KIM127 ([3]; 50 μg/ml): 40%
Effect on THP-1 binding to R3F9C [4]: no effect
Inhibition of HT1080 cell adhesion to vitronectin or fibronectin [5]: Neither

B2: MMP-2 C domain: recombinant C-terminal domain of MMP-2 (Glu438-Cys631) (protein)
chain: EICKQDIVFDGIAQIRGEIFFFKDRFIWRTVTPRDKPMGPLLVATFWPELPEKIDAVYEAPQEEKAVFFAGNEYWIYSASTLERGYPKPLTSLGLPPDVQRVDAAFNWSKNKKTYIFAGDKFWRYNEVKKKMDPGFPKLIADAWNAIPDNLDAVVDLQGGGHSYFFKGAYYLKLENQSLKSVKFGSIKSDWLGC
Competition of 125I-labelled MMP-9 C domain binding to β5 integrin-transfected CS-1 cells [1]: No competition
Inhibition of HT1080 invasion through matrigel by integrin and MMP domains [2]: inhibited HT1080 invasion with a similar potency

B3: β5 I-EGF2+3: integrin β5 I-EGF2+3 fragment (Glu476-Asn563) with N-terminal His6-tag (protein)
chain: ECQDGENQSVYQNLCREAEGKPLCSGRGDCSCNQCSCFESEFGKIYGPFCECDNFSCARNKGVLCSGHGECHCGECKCHAGYIGDNCN
modifications: left off: small tags and cut ends
notes: integrin β5 I-EGF2+3 fragment (Glu476-Asn563) with N-terminal His6-tag
Competition of 125I-labelled MMP-9 C domain binding to β5 integrin-transfected CS-1 cells [1]: competed
Inhibition of HT1080 invasion through matrigel by integrin and MMP domains [2]: inhibited HT1080 invasion with a similar potency
Competition of biotinylated β5 I-EGF2+3 binding to the MMP-9 C domain [6]: inhibited
Binding of biotinylated β5 I-EGF2+3 to the MMP-9 C domain ([6]; 2.5 μg/ml): specifically bound
Binding of β5 I-EGF2+3 to MMP-9 CBD, vitronectin, itself or the C domain of MMP-2 [7]: did not bind

B4: CBD: recombinant collagen binding domain of MMP-9 (Gly204-Gly373) (protein)
chain: GNADGAACHFPFIFEGRSYSACTTDGRSDGLPWCSTTANYDTDDRFGFCPSERLYTQDGNADGKPCQFPFIFQGQSYSACTTDGRSDGYRWCATTANYDRDKLFGFCPTRADSTVMGGNSAGELCVFPFTFLGKEYSTCTSEGRGDGRLWCATTSNFDSDKKWGFCPDQG
Effect on THP-1 cell binding to immobilized KIM127 ([3]; proteins 50 μg/ml, antibodies 25 μg/ml): did not

B5: pro-MMP-9-ΔHC: pro-MMP-9 lacking the hinge region and the C domain (protein)
chain: APRQRQSTLVLFPGDLRTNLTDRQLAEEYLYRYGYTRVAEMRGESKSLGPALLLLQKQLSLPETGELDSATLKAMRTPRCGVPDLGRFQTFEGDLKWHHHNITYWIQNYSEDLPRAVIDDAFARAFALWSAVTPLTFTRVYSRDADIVIQFGVAEHGDGYPFDGKDGLLAHAFPPGPGIQGDAHFDDDELWSLGKGVVVPTRFGNADGAACHFPFIFEGRSYSACTTDGRSDGLPWCSTTANYDTDDRFGFCPSERLYTQDGNADGKPCQFPFIFQGQSYSACTTDGRSDGYRWCATTANYDRDKLFGFCPTRADSTVMGGNSAGELCVFPFTFLGKEYSTCTSEGRGDGRLWCATTSNFDSDKKWGFCPDQGYSLFLVAAHEFGHALGLDHSSVPEALMYPMYRFTEGPPLHKDDVNGIRHLYG
Inhibition of HT1080 cell adhesion to vitronectin or fibronectin [5]: Neither
